The results in this text go back to paper PMC11077057, “Identifying human pre-mRNA cleavage and polyadenylation factors by genome-wide CRISPR screens using a dual fluorescence readthrough reporter”.

What all share (experiment): EMSA; 0-1 ug protein; heparin 200 ug/ml added after binding; EMSA: 40 mM Tris pH 8.0, 30 mM KCl, 1 mM MgCl2, 0.01% NP-40, 1 mM DTT, 100 ng/ml yeast tRNA, 20 ul, 30 C 30-60 min, then on ice with heparin 200 ug/ml; 4-6% native PAGE 0.5x TBE, cold room
In one data set the target is T1, RPRD1B full length (human, UniProt Q9NQG5 2-326).
T1 sequence: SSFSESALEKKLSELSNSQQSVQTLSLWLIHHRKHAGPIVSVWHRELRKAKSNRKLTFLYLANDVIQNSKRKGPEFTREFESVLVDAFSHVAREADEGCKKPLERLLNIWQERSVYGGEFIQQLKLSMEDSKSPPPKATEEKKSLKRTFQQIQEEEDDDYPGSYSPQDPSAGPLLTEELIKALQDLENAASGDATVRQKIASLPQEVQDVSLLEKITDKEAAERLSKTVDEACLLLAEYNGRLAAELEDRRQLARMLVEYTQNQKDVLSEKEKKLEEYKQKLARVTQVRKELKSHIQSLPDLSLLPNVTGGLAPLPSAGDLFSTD
As to conditions: protein: recombinant; (pET28GST-LIC; 6xHis stated); chain copies: 2.

The next data set deals with T2, RPRD1B CID (human, UniProt Q9NQG5 2-135).
T2 sequence: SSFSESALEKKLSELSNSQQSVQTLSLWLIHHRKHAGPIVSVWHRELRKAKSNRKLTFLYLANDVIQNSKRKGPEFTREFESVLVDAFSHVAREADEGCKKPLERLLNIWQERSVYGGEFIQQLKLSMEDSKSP
The note with it: protein: recombinant; (pET28GST-LIC; 6xHis stated).

For data set [1], the target named is T3, RPRD1B coiled-coil domain (human, UniProt Q9NQG5 171-304).
T3 sequence: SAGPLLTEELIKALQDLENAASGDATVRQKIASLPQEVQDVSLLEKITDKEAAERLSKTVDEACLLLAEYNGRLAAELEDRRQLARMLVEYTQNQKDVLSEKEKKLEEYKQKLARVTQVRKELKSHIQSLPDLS
As to conditions: protein: recombinant; (pET28GST-LIC; 6xHis stated); chain copies: 2.

B1: GEMIN7 exon 2 probe (ssRNA)
RNA: GCGGCUUCUCUGUUGACAACUCAGCUGGUUCCACACCCUGGCAAUUGUGAAGAGUUGGCCAAAUGUUUGUCCACUGAGCUGAUCUCCUCUCUGGAGCACC
For B1, the binding result in the data set with RPRD1B full length is “no binding”.

B2: GEMIN7 3' UTR probe (ssRNA)
RNA: AUUUGAUUUCAUUUUGGGGCGGGCGGUGGCUCGUGCUGGGUCACGUGGUCGUGCCAAGCGCUCCUCCUGUUGCCCCACCUGUGGUUGCUGUGGACUGCAC
With B2, the binding result with RPRD1B CID is “binds”; in data set [1], “no binding”; with RPRD1B full length, “binds”.
